Results taken from the supplement of paper PMC9732359.
± gives the uncertainty stated by the source.

Assay: protein stability index of a GFP-peptide fusion (yeast GPS) (PSI 1-4); higher = more stable; sorted into four equal gates, so the index is relative within each strain
Method in brief: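 Sequencing reads from sorted gates were used to score each peptide. The library consisted of tiled 17-residue yeast protein peptides fused downstream of GFP on a Cherry-expressing plasmid, pooled and carried in yeast. Mid-log cultures in leucine-free medium were split into four equal gates by GFP/Cherry ratio, and each gate's plasmids were PCR-amplified and Illumina-sequenced. The protein stability index adds up, over all gates, the read frequency multiplied by the gate number.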

Row | Sequence | protein stability index (doa10∆) | protein stability index (pdr5∆) | protein stability index (san1∆) | protein stability index (ubr1∆)
1 | LAASEIGISIVGRFSTI [ECM29] | 2.51 ± 0.091 | 2.95 ± 0.078 | 2.88 ± 0.073 | 2.3 ± 0.064
2 | DKARRLGYKAKQGFVIY [RPL15A] | 3.24 ± 0.16 | 3.33 ± 0.23 | 2.91 ± 0.14 | 3.28 ± 0.25
3 | VHDKVLEDMVFPTEIVG [RPS7B] | 2.63 ± 0.13 | 2.83 ± 0.08 | 2.56 ± 0.083 | 3.06 ± 0.054
4 | ILQILNLMILNTKVPVD [YML103C/NUP188] | 1.34 ± 0.1 | 1.51 ± 0.07 | 1.12 ± 0.29 | 1.34 ± 0.1
5 | DIIQGNPLMYSGGNNTA [PCI8] | 3.17 ± 0.082 | 3.13 ± 0.08 | 3.32 ± 0.047 | 3.24 ± 0.072
6 | KLLDNIQEYQLCDNFNH [COR1] | 2.35 ± 0.074 | 2.31 ± 0.091 | 2.44 ± 0.086 | 2.2 ± 0.064
7 | SPIVNVLEDVYRCFAQL [RRI2] | 2.53 ± 0.18 | 3.19 ± 0.17 | 2.9 ± 0.14 | 3.09 ± 0.083
8 | LYYPQKPLGTTRAMEYL [RPB2] | 2.17 ± 0.089 | 2.9 ± 0.15 | 2.05 ± 0.14 | 2.83 ± 0.06
9 | NVLCVNIKSNDFSIRKT [ECM29] | 2.52 ± 0.068 | 2.66 ± 0.099 | 2.58 ± 0.1 | 2.6 ± 0.071
10 | YEKELMGDELTRSHFNA [RPN6] | 2.96 ± 0.13 | 3.39 ± 0.15 | 3.34 ± 0.057 | 3.48 ± 0.1
11 | GTAGGNTFGSSSLFNNS [YJL041W/NSP1] | 3.2 ± 0.073 | 3.09 ± 0.06 | 3.12 ± 0.055 | 3.21 ± 0.059
12 | DDVKNILNAKYTKETYQ [RPN6] | 3.26 ± 0.076 | 2.99 ± 0.066 | 3.08 ± 0.052 | 3.12 ± 0.064
13 | RFSPDEDFEHNNLSSMN [MCD1] | 2.69 ± 0.094 | 3.35 ± 0.18 | 3.09 ± 0.091 | 3.18 ± 0.074
14 | STGDYTFTIQLLKLTKV [YML103C/NUP188] | 1.58 ± 0.075 | 2.92 ± 0.13 | 2.16 ± 0.12 | 2.51 ± 0.11
15 | KNQLRDWIRFVSTKTNE [RPL22A] | 2.3 ± 0.046 | 2.22 ± 0.047 | 2.17 ± 0.068 | 2.61 ± 0.04
16 | KIMPKDILQITKKPLMV [SIR4] | 2.62 ± 0.088 | 2.79 ± 0.17 | 2.32 ± 0.1 | 2.56 ± 0.09
17 | RVSKDKKSGSLTFNSKN [FAS2] | 3.34 ± 0.084 | 3.26 ± 0.072 | 3.23 ± 0.092 | 3.18 ± 0.074
18 | ANYIKERTKNAQFIVIS [SMC4] | 2.76 ± 0.11 | 1.5 ± 0.067 | 1.49 ± 0.11 | 2.27 ± 0.071
19 | LEEDSKKVNGTSYKKWS [PRP8] | 3.3 ± 0.14 | 3.41 ± 0.15 | 3.24 ± 0.075 | 3.03 ± 0.092
20 | FNTPFANTGGQDKIELS [SNF2] | 1.89 ± 0.18 |  | 1.55 ± 0.2 | 1.87 ± 0.2
21 | VVRIKGINKIPPKPRKV [RPL7A] | 1.94 ± 0.043 | 2.21 ± 0.055 | 2.57 ± 0.063 | 2.44 ± 0.047
22 | QNNTTKFHSELQYLDKH [RPN12] | 2.81 ± 0.1 | 3 ± 0.095 | 2.39 ± 0.26 | 3.17 ± 0.061
